Patent US20240100162A1 (Amgen, published 2024)

B1: TCR1 (TCR, V domains shown)
V domain 1: KQEVTQIPAALSVPEGENLVLNCSFTDSAIYNLQWFRQDPGKGLTSLLLIQSSQREQTSGRLNASLDKSSGRSTLYIAASQPGDSATYLCAAMKTSYDKVIFGPGTSLSVIP
V domain 2: GEEVAQTPKHLVRGEGQKAKLYCAPIKGHSYVFWYQQVLKNEFKFLISFQNENVFDETGMPKERFSAKCLPNSPCSLEIQATKLEDSAVYFCASSQGQGGYGYTFGSGTRLTVVE
B2: TCR2 (TCR, V domains shown)
V domain 1: QKEVEQNSGPLSVPEGAIASLNCTYSDRGSQSFFWYRQYSGKSPELIMSIYSNGDKEDGRFTAQLNKASQYVSLLIRDSQPSDSATYLCAVNIPFSNSGGYQKVTFGTGTKLQVIP
V domain 2: NAGVTQTPKFRVLKTGQSMTLLCAQDMNHEYMYWYRQDPGMGLRLIHYSVGEGTTAKGEVPDGYNVSRLKKQNFLLGLESAAPSQTSVYFCASRHPGQYNQPQHFGDGTRLSILE
B3: TCR3 (TCR, V domains shown)
V domain 1: AQKVTQAQTEISVVEKEDVTLDCVYETRDTTYYLFWYKQPPSGELVFLIRRNSFDEQNEISGRYSWNFQKSTSSFNFTITASQVVDSAVYFCALSVLRMDSSYKLIFGSGTRLLVRP
V domain 2: NAGVTQTPKFRVLKTGQSMTLLCAQDMNHEYMYWYRQDPGMGLRLIHYSVGEGTTAKGEVPDGYNVSRLKKQNFLLGLESAAPSQTSVYFCASSLQGAGQPQHFGDGTRLSILE

Target: MAGE-B2 peptide-MHC (…/HLA-A*02:01) on cells (human)
Experiment: cell-based or functional assay

Row | Binder | EC90 (peptide concentration), T2/peptide cytotoxicity assay [nM] | E:T EC50, cytotoxicity against MAGE-B2+ MAGE-A4+ cancer cell lines | E:T EC50, cytotoxicity against MAGE-B2+ MAGE-A4- cancer cell lines
1 | B1 | ≤ 10 |  | 
2 | B2 | ≤ 10 | 0.01 E:T ratio | ~0.07 E:T ratio
3 | B3 | ≤ 10 |  | 
